Laboratory results reported in patent US20250387497A1, “MULTIVALENT MULTISPECIFIC CONJUGATES AND RELATED COMPOSITIONS AND METHODS OF USE” (Purdue Research Foundation, priority 2022, published 2025).

B1: FCGDGFYACYMDVGRAQGKAQGYHWYGYTPQNVIGQAKGQARGVSPPLTLGQLLSG KQAGRQAGKLAKLAKKLAKLAKGQRAGQKAG (peptide)
chain: FCGDGFYACYMDVGRAQGKAQGYHWYGYTPQNVIGQAKGQARGVSPPLTLGQLLSGKQAGRQAGKLAKLAKKLAKLAKGQRAGQKAG
modifications: HA tag; MV-MS conjugate; P2 conjugate sequence: H-E-F-I
B2: YHWYGYTPQNVIGRAQGKAQGKLAKLAKKLAKLAKGQAKGQARGFCGDGFYACY MDVGKQAGRQAGVSPPLTLGQLLSGQRAGQKAG (peptide)
chain: YHWYGYTPQNVIGRAQGKAQGKLAKLAKKLAKLAKGQAKGQARGFCGDGFYACYMDVGKQAGRQAGVSPPLTLGQLLSGQRAGQKAG
modifications: HA tag; MV-MS conjugate; P1 conjugate sequence: E-I-H-F

What was measured:
T24 cells = experiment: Binding and internalization of P1/P2 peptides, anti-HA immunofluorescence, T24 cells; type: cell-based; conditions: human T24 cells
From the text: (§1) Arrows and arrowheads point to examples of internalized peptide in endosomal and late compartments, respectively.
(§2) The tested conjugates targeted bladder cancer cells and were internalized. See Coon et al. (2012), supra, for description of methodologies. See, e.g., FIGS. 3D and 3E. Given interspecies receptor conservation, the conjugates targeted cells of human, mouse and canine origin (FIG. 3D), and were internalized in GFP-Rab5-positive endosomes (see, e.g., FIG. 3D, mid-panel set) in a time-dependent manner (FIG. 3E).

[1] = test system: cells isolated from spontaneous dog tumors and immortalized; experiment: Binding and internalization of P1/P2 peptides, anti-HA immunofluorescence, canine bladder tumor cells; type: cell-based
From the text: as §1, §2

MB49 cells = experiment: Binding and internalization of P1/P2 peptides, anti-HA immunofluorescence, MB49 cells; type: cell-based; conditions: mouse MB49 cells (LE and WT)
Protocol: as §1
After five minutes, internalized peptide was localized to peripheral early endosomes (arrowheads) and after 45 minutes accumulated in late endosomes/lysosomes (arrows).
FIGS. 3F-3G show the amount of cell-associated peptide as a function of time as estimated by quantitative microscopy (FIG. 3F) and as a function of dose by quantitative Western blot (FIG. 3G) with anti-HA antibodies (upper panel) followed by band densitometry of triplicates (lower panel).
as §2

[2] = test system: MB49 wild type cancer cells; experiment: P2 binding in cultured MB49 wild type cancer cells, anti-HA immunostaining; type: cell-based, mouse; conditions: MB49 wild type cancer cells versus normal urothelium cells
Protocol: (§3) FIGS. 4A and 4B show images of immunostaining with an anti-HA antibody of normal (FIG. 4A) and MB49 wild type cancer (FIG. 4B) cells incubated with the highest concentration of P2 conjugates used.
(§4) Normal (labeled A) and MB49 wild type cancer (labeled B) cells isolated from bladder urothelium were disaggregated and cultured in vitro. Cultured cells were incubated with different concentrations of the P2 MV-MS conjugate and the presence of cell-bound peptide was investigated by immunostaining with an anti-HA antibody using the methodologies described in Example 1.

normal urothelium = experiment: P2 binding/uptake in cultured normal urothelium cells, anti-HA immunostaining; type: cell-based; conditions: different P2 concentrations
Protocol: as §3, §4

| Molecule | binding and internalization of peptide (T24 cells) | binding and internalization of peptide [1] | binding and internalization of peptide (MB49 cells) | selectivity for cancer cells [2] | binding or uptake to normal urothelium (normal urothelium) |
| --- | --- | --- | --- | --- | --- |
| B1 | bound and internalized | bound and internalized | bound and internalized | marked selectivity for cancer cells | no detectable binding or uptake |
| B2 | bound and internalized | bound and internalized | bound and internalized | – | – |
